For one series, the target named is T1, sEGFR (Homo sapiens, UniProt P00533).
T1 construct: sEGFR is the recombinant extracellular domain (amino acids 1-621) of the wild-type EGFR; host or cells: CHO cells
The series is described as follows: BIAcore, immobilized sEGFR. The series is classed as binding. The protocol:
In a second set of BIAcore™ experiments, sEGFR was immobilized on a CM microsensor chip at a surface density of ˜4000RU. Serial dilutions of mAbs were tested for reactivity with sEGFR.

The subject of series [1] is glioblastomas not preselected for their EGFR status. The series is described as follows: immunohistochemistry of 46 unselected glioblastomas. Further details: species or system human.
Experimental: Immunohistochemical analysis was performed using 5 mm sections of fresh frozen tissue applied to histology slides and fixed for 10 minutes in cold acetone. Bound primary antibody was detected with biotinylated horse anti-mouse antibody followed by an avidin-biotin-complex reaction. Diaminobenzidine tetra hydrochloride (DAB) was used as chromogen. The extent of the immunohistochemical reactivity in tissues was estimated by light microscopy and graded according to the number of immunoreactive cells in 25% increments as follows: • Focal=less than 5% • +=5-25% • ++=25-50% • +++=50-75% • ++++=>75%
Series [2] has as its target T2, EGFR extracted from DU145 cells (Homo sapiens, UniProt P00533).
T2 construct: endogenous in cells; host or cells: DU145
Kind of series: immunoprecipitation and immunoblot. Format: binding. The protocol: Cells were lysed with lysis buffer (1% Triton X-IOO, 30 mM HEPES, 150 mM NaCl, […] 4-(2-aminoethyl) benzenesulfonylfluoride, 150 nM aprotinin, 1 mM E-64 protease inhibitor, 0.5 mM EDTA, and 1 mM leupeptin, pH 7.4) for 20 minutes, clarified by centrifugation at 14,000×g for 30 minutes, immunoprecipitated with the relevant antibodies at a final concentration of 5 μg/ml for 60 minutes and captured by Sepharose-A beads overnight. Samples were then eluted with 2× NuPAGE® SDS Sample Buffer (Invitrogen), resolved on NuPAGE® gels (either 3-8% or 4-12%), electro-transferred onto Immobilon®-P transfer membrane (Millipore) then probed with the relevant antibodies before detection by chemoluminescence radiography.
Clearly, mAb806 and mAb175 can recognize only a small proportion of the EGFR on cells in the presence of an autocrine stimulation loop.
For orientation: In western blotting, separated proteins are transferred to a membrane and probed.

A further series relates to U87MG xenografts. The series is described as follows: preventative xenograft model. Format: in vivo, nude mice. Particulars: 1 mg per injection i.p., 3 times per week for 2 weeks. The protocol:
(§1) Tumor cells (3×10^6) in […] of PBS were inoculated subcutaneously into both flanks of 4-6 week old female nude mice (Animal Research Centre, Western Australia, Australia). […] Treatment was continued for a total of 6 doses, 3 times per week for 2 weeks. In the established model, treatment was started when tumors had reached a mean volume of 65±6.42 mm^3 (U87MG.Δ2-7), 84±9.07 mm^3 (U87MG), 73±7.5 mm^3 (U87MG.wtEGFR) or 201±19.09 mm^3 (A431 tumors). Tumor volume in mm^3 was determined using the formula (length×width^2)/2, where length was the longest axis and width the measurement at right angles to the length (Clark et al. (2000) Therapeutic efficacy of anti-Lewis (y) humanized 3S 193 radioimmunotherapy in a breast cancer model: enhanced activity when combined with Taxol chemotherapy. Clin. Cancer Res. 6, 3621-3628). Data was expressed as mean tumor volume±S.E. for each treatment group. Statistical analysis was performed at given time points using Student's t-test. Animals were euthanized when the xenografts reached an approximate volume of 1.5 cm^3 and the tumors excised for histological examination. This research project was approved by the Animal Ethics Committee of the Austin and Repatriation Medical Centre.

The test system of the next series is U87MG.wtEGFR cells. Kind of series: FACS binding to cell lines. Format: cell-based, human. The protocol:
Briefly, cells were labelled with the relevant antibody (10 μg/ml) followed by fluorescein-conjugated goat anti-mouse IgG (1:100 dilution; Calbiochem San Diego, CA, USA; Becton-Dickinson PharMingen, San Diego, CA, US) as described previously (Nishikawa et al., 1994). FACS data was obtained on a Coulter Epics Elite ESP by observing a minimum of 5,000 events and analyzed using EXPO (version 2) for Windows.
Stained cells were analyzed with a FACS Calibur™ using Cell Quest™ software (Becton-Dickinson PharMingen). […] 1. Mouse IgG2a or IgG2b was used as an isotype control.
Cell lines and antibodies were prepared as described in Example 1. […] Cells (1 3 10 6) were incubated with 5 μg/ml of the appropriate antibody or an isotype-matched negative control in PBS containing 1% HSA for 30 min at 4° C. After three washes with PBS/1% HSA, cells were incubated an additional 30 min at 4° C. with FTTC-coupled goat anti-mouse antibody (1:100 dilution; Calbiochem, San Diego, CA). After three subsequent washes, cells were analyzed on an Epics Elite ESP (Beckman Coulter, Hialeah, FL) by observing a minimum of 20,000 events and analyzed using EXPO (version 2) for Windows.

Series [3] deals with A431 xenografts. To be noted: mouse, in vivo.
Experimental: U87MG or A431 cells were injected on one side 7-10 days before U87MG.Δ2-7 cells were injected on the other side because of the faster growth rate observed for de2-7 EGFR expressing xenografts. Antibodies were radiolabeled and assessed for immunoreactivity as described above and were injected into mice by the retro-orbital route when tumors were 100-200 mg in weight. […] Unless indicated, groups of 5 mice were sacrificed at various time points post-injection and blood obtained by cardiac puncture. The tumors, liver, spleen, kidneys and lungs were obtained by dissection. All tissues were weighed and assayed for ^125I and ^131I activity using a dual-channel counting Window. Data was expressed for each antibody as % ID/g tumor determined by comparison to injected dose standards or converted into tumor to blood/liver ratios (i.e. % ID/g tumor divided by % ID/g blood or liver). Differences between groups were analyzed by Student's t-test.
Series [4] deals with A431 xenografts. Kind of series: preventative xenograft model. Format: in vivo, nude mice. The protocol: as §1
These cells contain an amplified EGFR gene and express approximately 2×10^6 receptors per cell. […]

In series [5] the test system is HN5 head and neck cell line. Kind of series: FACS binding to cell lines. The series is classed as cell-based, human. On the technique in general: A flow cytometer gives signals particle by particle.
In another series the test system is U87MG.wtEGFR xenografts. Kind of series: established xenograft model. To be noted: day control animals were sacrificed; 1 mg injections. Format: in vivo, nude mice. On the procedure: as §1, with “Centre. […]” for “Centre.”

The record followed here is patent US20240117073A1, “METHODS OF TREATING NEOPLASTIC ASTROCYTOMA” (Ludwig Institute for Cancer Research Ltd., priority 2009, published 2024).

Values joined by “and” are separate entries in the source; they are usually repeats but may differ in a detail not shown here. Identical values can stand only once. “Also recorded” adds a separate entry of the source.

B1: mAb806: murine monoclonal antibody recognizing de2-7 EGFR and amplified EGFR; VH SEQ ID NO:2, VL SEQ ID NO:4 (antibody, listed as Mus musculus, V domains shown)
VH: MRVLILLWLFTAFPGVLSDVQLQESGPSLVKPSQSLSLTCTVTGYSITSDFAWNWIRQFPGNKLEWMGYISYSGNTRYNPSLKSRISITRDTSKNQFFLQLNSVTIEDTATYYCVTAGRGFPYWGQGTLVTVSA
VL: MVSTAQFLAFLLLWFPGARCDILMTQSPSSMSVSLGDTVSITCHSSQDINSNIGWLQQRPGKSFKGLIYHGTNLDDEVPSRFSGSGSGADYSLTISSLESEDFADYYCVQYAQFPWTFGGGTKLEIKR
Turning to B1, the “reactivity with denaturated sEGFR” value in the series with sEGFR is recorded as “strongly reactive”. In [1] (46 glioblastomas), the positive cases worked out at 58.7%. In addition, the positive cases/cases in series [1] (46 glioblastomas) is recorded as 27/46. For the same molecule, the immunohistochemical staining result in series [1] (case with EGFR Amp. N, A2) is given as “++++ (++++=>75%)”; in [1] (cases with EGFR Amp. A, WT), “++++ (++++=>75%)”; in [1] (cases with EGFR Amp. N, mutation nd) it was “neg”; in series [1] (cases with EGFR Amp. nd, mutation nd), “neg”. Further, in [1] (mAb806: in more than 50% of the tumor), the “cases with homogeneous immunoreactivity” value is recorded as 22. Besides, the “immunoprecipitation of EGFR” value in [2] was “immunoprecipitate a small proportion of the EGFR”. For the same molecule, the “effect on xenograft growth” value with U87MG xenografts is listed as “no effect”; in the series on A431 xenografts [4] (0.1 mg) it was “inhibited significantly”. The FACS staining result is on record as “stained; also recorded: reacted weakly” in the series with U87MG.wtEGFR cells and “clearly stained both cell lines but at a lower level” in series [5]. The “uptake expressed as % ID/g tumor” value in the series with A431 xenografts [3] is recorded as “comparatively low”. Further, the mean tumor volume in the series with A431 xenografts [4] (day 13, 1 mg injection) is 260±60.33 mm^3 and 260±60 mm^3; in the series with U87MG.wtEGFR xenografts it was 468±78.38 mm^3 and 500±80 mm^3.
